Measured values as given in the supplement of paper PMC10126150.
± gives the standard deviation of the averaged measurements.

Tested on: ATP
Assay: switch fluorescence ratio, 500 uM ATP over buffer (Cy3 cluster intensity, sum of 5 cycles each) (fold (ratio)); higher = stronger signal-on switching upon ATP binding; sequences stand for … in TCGTCGGCAGCGTCAGATGTGTATAAGAGACAGTTTTTTTTTTTTTTTTTTTTTTTTT…TC
Details: aptamer strand: ATP DNA aptamer (quencher-CACCTGGGGGAGTATTGCGGAGGAAGG + anchor), 100 nM annealed; ATP concentration: 500 uM
Summary of the method: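 Exposure to 500 uM ATP lasted 15 min at 22 °C before imaging, and a selection-buffer image was taken beforehand, for Cy3-labelled switching-strand clusters on a modified Illumina MiSeq flow-cell annealed to 100 nM quencher-labelled ATP aptamer. Five buffer/ATP cycles were run with NaOH stripping and re-annealing between them. The fluorescence ratio per cluster is summed target-cycle over summed buffer-cycle Cy3 intensity, averaged per switch-domain sequence. Clusters outside 100-1000 RFU were excluded.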

Sequence | switch fluorescence ratio
TGCTATTGGT | 1.03 ± 0.035
TGCTCATTTT | 0.992 ± 0.032
TGCTCGGGCA | 1.014 ± 0.0072
TGCTCGGGGA | 1.021 ± 0.0023
TGCTGACGGT | 0.993 ± 0.029
TGCTGAGACA | 1.01 ± 0.012
TGCTGCAAAG | 0.9943 ± 0.0049
TGCTGGTAGC | 0.995 ± 0.042
TGCTGGTCGG | 0.985 ± 0.035
TGCTGGTGCC | 1.02 ± 0.013
TGCTGTGGGG | 1 ± 0.029
TGCTTAAGTT | 0.999 ± 0.021
TGCTTACAAA | 1.01 ± 0.027
TGCTTACCCA | 1.03 ± 0.017
TGCTTAGGAA | 1.005 ± 0.0072
TGCTTAGTTC | 0.959 ± 0.046
TGCTTCATTT | 1.023 ± 0.0018
TGCTTCGACG | 0.9996 ± 0.0012
TGCTTCTATA | 1.01 ± 0.051
TGCTTGAA | 0.962 ± 0.021
TGCTTGATGG | 0.9851 ± 0.0044
TGCTTGCGGA | 1.02 ± 0.023
TGCTTGTTCG | 1.029 ± 0.0097
TGCTTTAAGG | 1.02 ± 0.04
TGCTTTAAGT | 0.9912 ± 0.0029

Sequence | switch fluorescence ratio
TGCTTTCCTT | 1.035 ± 0.0034
TGCTTTGCCT | 1.03 ± 0.013
TGCTTTTATT | 1 ± 0.022
TGCTTTTGTC | 1.01 ± 0.078
TGCTTTTTAG | 0.988 ± 0.029
TGCTTTTTTT | 0.966 ± 0.024
TGGAAAAGAT | 0.995 ± 0.016
TGGAAAAGCG | 0.976 ± 0.012
TGGAAAGGCG | 1.04 ± 0.06
TGGAAATAAA | 0.9968 ± 0.0051
TGGAAATTTG | 1.01 ± 0.036
TGGAAGATGT | 1.02 ± 0.03
TGGAAGGTTT | 1.08 ± 0.11
TGGAATAGAA | 1.01 ± 0.02
TGGAATAGGG | 0.992 ± 0.011
TGGAATGGAA | 0.9717 ± 0.0076
TGGAATTGGA | 1.03 ± 0.093
TGGAATTTAA | 0.984 ± 0.017
TGGACGAGGG | 0.992 ± 0.041
TGGAGAAATT | 0.952 ± 0.13
TGGAGAAGGC | 0.977 ± 0.12
TGGAGATAGG | 0.994 ± 0.016
TGGAGATTTT | 1.015 ± 0.0062
TGGAGCCAGG | 1.08 ± 0.064
TGGAGCCTAT | 0.991 ± 0.031

Sequence | switch fluorescence ratio
TGGAGCTGGG | 1.31 ± 0.5
TGGAGGGGTA | 1.05 ± 0.053
TGGAGGTAGT | 0.993 ± 0.033
TGGAGGTTTT | 1.07 ± 0.045
TGGAGTAGC | 1.07 ± 0.078
TGGAGTCCAT | 1.026 ± 0.0098
TGGAGTGCTT | 0.983 ± 0.0022
TGGAGTGGAG | 0.989 ± 0.023
TGGATAAGGA | 0.983 ± 0.013
TGGATAATCG | 0.996 ± 0.024
TGGATAATTT | 0.9962 ± 0.0084
TGGATATGTG | 1.01 ± 0.018
TGGATCTGCC | 1.036 ± 0.0056
TGGATCTGCG | 1.01 ± 0.023
TGGATGAGGG | 0.99 ± 0.03
TGGATGGGAG | 0.9922 ± 0.0028
TGGATGGGCT | 1.03 ± 0.037
TGGATGGGGC | 1 ± 0.012
TGGATGGTGG | 0.9906 ± 0.0024
TGGATTAGGG | 1 ± 0.023
TGGATTAGTT | 0.96734 ± 0.00041
TGGATTGTGT | 0.9735 ± 0.0032
TGGATTTACT | 1.01 ± 0.031
TGGATTTTTT | 0.996 ± 0.036
TGGCAGGAAT | 0.9766 ± 0.0014

Sequence | switch fluorescence ratio
TGGCAGGGAT | 1.02 ± 0.067
TGGCAGGTTT | 1.015 ± 0.01
TGGCATGTGT | 0.986 ± 0.033
TGGCCGGGGG | 1 ± 0.02
TGGCCTAATG | 0.965 ± 0.013
TGGCCTGGGG | 0.979 ± 0.025
TGGCGAAGAG | 0.999 ± 0.011
TGGCGCACAA | 1.07 ± 0.013
TGGCGCCCGT | 1.08 ± 0.11
TGGCGCCCTG | 0.998 ± 0.069
TGGCGGAAAG | 0.977 ± 0.025
TGGCGGAATT | 1.02 ± 0.02
TGGCGGCCGA | 0.996 ± 0.021
TGGCGGGATA | 1.009 ± 0.0013
TGGCGGGGAG | 0.998 ± 0.021
TGGCGGGGGT | 0.981 ± 0.012
TGGCGGTGAC | 1.02 ± 0.01
TGGCGTAGTA | 1.01 ± 0.051
TGGCGTCTTA | 0.9875 ± 0.0033
TGGCGTTGTG | 0.9928 ± 0.0017
TGGCTAGATA | 0.973 ± 0.041
TGGCTATGCG | 0.969 ± 0.029
TGGCTCAGTG | 1.024 ± 0.0018
TGGCTGGTGT | 1.02 ± 0.08
TGGCTGTCTT | 0.97 ± 0.13
